Test results as given in publication PMC9771711 (Science (New York, N.Y.), 2021).

Molecular target: CCHFV Gc^1579 (Crimean-Congo hemorrhagic fever virus, …)
Experiment: BLI

B1: ADI-36121 (as used in BLI) (antibody, V domains shown)
VH: EVQLLESGGDLVQPGGSLRLSCAASGFTFSSYVMSWVRQAPGKGLEWVSVIYRGGSTKYADSVKGRFTISRDDSKNTLYLQMNSLRVEDTAVYYCVKDPKAWLEPEWWGQGTLVTVSS
VL: DIQMTQSPSSLSASVGDRVTITCRASQSISKYLSWFQQKPGKAPNLLIYAASYLQSGVPSRFSGSGSGTDFTLTISSLQPEDFATYYCQQSYSNPRTFGQGTKVEIK
binding result: binds
